Source: the DeepSol protein solubility set

Assay: soluble on expression in E. coli; label from the status in PepcDB or PDB records

Soluble on expression in E. coli, not soluble:
MGSDKIHHHHHHMVDQSQLRQWGCKVIDIEKSALDNLYQYVDSAEFAQACELILNCSGKVIVMGMGKSGHIGNKISATLASTGTPAFFVHPGEASHGDLGVLSDNDIILAISNSGESSEILALMPVIQRKAIPVIAMTGKPESTMARLAKIHLCIEVPEEACPLGLAPTSSTTATLVMGDAMAIALLQAKGFTRDDFAMSHPGGALGRKLLLKVSNVMHCGDDLPLVKHDICITDALYEISKKGLGMTAIIDEQNKLVGIFTDGDLRRVIDAQVNLRTTPIADVMTRNCVTITENVLAAQALQVMDSRNINGLIVIDKENHPVGALNMLDMVKAGVI
MENLKIRYIDTRKIGTVSGVKVPVKKGYKIVVEDEEKGEDIVEVLGYSREESKNGIQPRFVRVANKRDLEIFKKNMRESERAFEICKEKIKEHGLDMHLLKAYIPLNRKKVFFYYLAEERVDFRNLVRDLAKIFKRRIEMRQIGVRDAVQMKGWIGRCMRETCCSQFMENFQSISLRDITEQNLPLSPSKFTGPCGRLVCCMAFERENYLLKILFPEPGTKLCYNKQEVTLLEVDPLRETVVLQYDELGKKVELGVRDMLPKGYEKALEHCRSCQFCCRRVYEEATEHEIVKSSAELEHHHHHH
MGSDKIHHHHHHMSYLTEKLREEKVFKDPVHGYVHVSDKIIWDLIATKEFQRLRRIHQLGTTSLTFHGAEHSRFNHSLGVYEIVRQIIDVTFANEPQLDPEERMVALCAALLHDLGHGPFSHAFEKVFGTDHESYTQEIIIGDTEVNKILMRAGEEFPLKVAAIIKKNYPNQTLVKLISSQIDADRMDYLLRDAYYTGVSYGKFDLERILRVLRPSPDGNGVIVKYSGMHAVEDYIMSRYQMYQQVYFHPVSRSGEVLLWKILERAKKLYCAGYEFQATPIQVLPFFLNEVSLKDYIVLDDIVLMYYFSIWQEEEDPILSDLCSRFLNRRLLRYINYDPKEDAELYAELKGLLEKADIDPSYYLVIDSSSDLPYDYYLPGVGSGKDPIKLLMGNGELRELSTESPVVEAIGRERRTDIKLYYPLDFIESGHVEEAITERMIALIHAHSLKEK
MGSDKIHHHHHHMLISLEDTNYTLVKEYLEKSVNHHILQRYIDNHNFPIIEKSYHKYLTFESLEEDFTYILKDGIVKQSVLSKYGMEFNLRYVTGLEITSVLNTGYSKDMGEPYNVRIESEKASFYKVRRSAFLKDINEDIELQGYVKDFYHNRLQKSMKKMQCMLTNGRIGAISTQIYDLMTLFGEELPNGQILINFVITNEELGKFCGISTASSVSRILKQLKEKNIIRIDKQHIIITNLDKLKDNIVF
MGHHHHHHSHVLLVTANVGSLFDDPENLQKNWLREFYQVVHTHKPHFMALHCQEFGGKNYEASMSHVDKFVKELLSSDAMKEYNRARVYLDENYKSQEHFTALGSFYFLHESLKNIYQFDFKAKKYRKVAGKEIYSDTLESTPMLEKEKFPQDYFPECKWSRKGFIRTRWCIADCAFDLVNIHLFHDASNLVAWETSPSVYSGIRHKALGYVLDRIIDQRFEKVSYFVFGDFNFRLDSKSVVETLCTKATMQTVRAADTNEVVKLIFRESDNDRKVMLQLEKKLFDYFNQEVFRDNNGTALLEFDKELSVFKDRLYELDISFPPSYPYSEDARQGEQYMNTRCPAWCDRILMSPSAKELVLRSESEEKVVTYDHIGPNVCMGDHKPVFLAFRIMPG
MLMAATIPHIETITFTDWFLAIIDTPDIPIDEIEIRVAEGFKRKLTERQFQQLTELIHLISFIKHKKISNPTLALRIYVDENTSSLSRTALVEAVRMLPPEDNKTYELAAYLAQKNKLERYTNITKVPPLQIYQGDGVFEQYDEWILLFELFGLTQATPSDFIPAIAHLLITKNLGIPDLRALSKFMSTTHKLGILSQSFMNNMTPHLCNGQIIEKYESLLLKLQINDLLTEEILEVIYPLLNQPDALDAFFSLYHEEPSHDSALSFLREILPSFCAMSLPSKESYDDQVPTNTPLHLAVIESDKGNLERTLAFANRNLLIKCSYENTALLLACKLADKESARLILAKMQELGCDVNQRDHHGMTALHWANFYHFDELIRELEIAGADPQLKAANGKTCEYFYQHQFTLKDLKLNGKEIIDGEFKLSDCALTDIAFHMDKIALNLKLTTPSEIAELYARDEIAQIRSSNRFYLFFKLFRPKLINWLEKQNDLEPQVTYRFSGQSSSA
MVQDWHQQEKARMIQTLTGTKAVYGSEVESKIIEFAIVGADEVVAEKLGVSIGDFVYKIIRLRIIHSIPTIMEHTWMPISVIPGVEASVLEESIYSHIQNKLGLEVGTSVVRVKGIRPDDREKQFMNLTNQDFLMRVEQVAYLTDGRTFEYSYADHLPETFEFETVITAKKL
MLGKEELRNQSIAVIGAGIIGLSIGLKLQQQGYHVTIFDPNGVGNGCSKGNAGHIATEQVFPLATPALIPQLPKMLLSSTSPVSIRWQDLPNTVGWMIRFLLKAKPSAAEASTQAITSLNTRAVQSWNLLLDSIGKSGLIKMDGSLLTFESESLFEGYQSTLDALAEQGVRYELWTQNEIRRRLPELSRKVRFGVFFPETGHTINPYALCVELSNAFEKLGGSLVHEEVDAVSKNGDVLVNTQRMSFDKIVVAAGVHSKALVRQLTGVNVPIQAERGYHLMMNDKRESLPFPISSADRKFIMTPMSEGLRLAGTVEYADVKSPPNMKRAEMLYQQGNAMFESGLNPLEQQEKWMGNRPSTIDSLPVIDQCFNGKIFLAFGHQHLGLTQAAITADLISELVADKPTSVNITPFTLQRFALEHHHHHH

Soluble on expression in E. coli, soluble:
MAHHHHHHMAAYVGSVPPATLTTLAQREVELSLLQFLRQYHPKVDELWRTHPDAEPMETAEEMCMDASDDCKSDHLPRLHRELHDSYVQGRFLFLGESTQGLYSSQPWLAFWALQAADMLDITEKLYEHVSPDALGNFILGCLQEVKKSGTSNDDDMRNNPMDMDEQQESVLLRNPVSIFDDDNDDGKRLVGFAGGQLAQIPHLAASYAALCSLCILPRTTYLRALPRAAIKRWLLSLRCKDGSFCMHTGGEADIRASYCVAVMTVLLQLNDVPAYTDGRDDTVLTEQTAAFVASCQTHEGGFACGLNASEAHGAYTQCGLAALILMRYPHLCKYAALRRWLSARQLKFEGGFNGRTNKLVDSCYSYWVGASHMLLRVGESYMRLLGQTETPRCLTAREALLLDHAQLIDTTSMCPMDDDAWRHAEEIHRQRTAHVEAYLHAPSHSTWKQQTATQSFLDEDVGDFYFNQRRLLLYVLSCCQDKEMGGLMDKPGCLNDAYHTCYSLSGMSTAQNLQYLPRSCTNETLMYATALRRGYIPNERDDYEIVLAVHNSNRGVGCGCYRSQERLSPLNPIFNICQSRVLAALRTWGVKSFIC
SEGWAGRVRRHLAGDPARGPTMDVLAAELGVSVRTLRRRLADEGTDYETVVDEIREALAEALLATTTLTVAEVSERLGYSEPSAFARAFRRWKAMSPNEYRRSA
MKIAIIGATGHAGSAIFKEALKRGHEVTGYVRHPDKSVGILPPDADLIQQDAFTLTREQLTGYDAVIDAFATTVEQAYLHIDLADHLIHELRNTDKPRVIFILGAGSLKNGDQTLYDTLKKDPHAAAFINTPLNQFRELQLLRWTDNVNWLGISPSANFQPGPATAYVRGKDELLKDDSGKSVLNSDTLAVALLDELENPTIKQARFTARNALEHHHHHH
MPEVIFNGPAGRLEGRYQPSKEKSAPIAIILHPHPQFGGTMNNQIVYQLFYLFQKRGFTTLRFNFRSIGRSQGEFDHGAGELSDAASALDWVQSLHPDSKSCWVAGYSFGAWIGMQLLMRRPEIEGFMSIAPQPNTYDFSFLAPCPSSGLIINGDADKVAPEKDVNGLVEKLKTQKGILITHRTLPGANHFFNGKVDELMGECEDYLDRRLNGELVPEPAAKRIR
NAQARFSQNLLDQGSHPTSEKLLSVLRPASGHVADALGITEGENVIHLRTLRRVNGVALCLIDHYFADLTLWPTLQRFDSGSLHDFLREQTGIALRRSQTRISARRAQAKECQRLEIPNMSPLLCVRTLNHRDGESSPAEYSVSLTRADMIEFTMEH
MGSSHHHHHHSSGLVPRGSHMMIVIMDNGGQYVHRIWRTLRYLGVETKIIPNTTPLEEIKAMNPKGIIFSGGPSLENTGNCEKVLEHYDEFNVPILGICLGHQLIAKFFGGKVGRGEKAEYSLVEIEIIDEDEIFKGLPKRLKVWESHMDEVKELPPKFKILARSETCPIEAMKHEELPIYGVQFHPEVAHTEKGEEILRNFAKLCGEL
MSLTNSSKSFTKFMAASAVFTMGFLSVPTAGAEQTNQIANKPQAIQWHTNLTNERFTTIAHRGASGYAPEHTFQAYDKSHNELKASYIEIDLQRTKDGHLVAMHDETVNRTTNGHGKVEDYTLDELKQLDAGSWFNKKYPKYARASYKNAKVPTLDEILERYGPNANYYIETKSPDVYPGMEEQLLASLKKHHLLNNNKLKNGHVMIQSFSDESLKKIHRQNKHVPLVKLVDKGELQQFNDQRLKEIRSYAIGLGPDYTDLTEQNTHHLKDLGFIVHPYTVNEKADMLRLNKYGVDGVFTNFADKYKEVIKEGHHHHHH
MERFDAVIIGAGAAGMFCAAQAGQAGSRVLLIDNGKKPGRKILMSGGGRCNFTNLYVEPAAYLSQNPHFCKSALARYTQWDFIDLVGRYGIAWHEKTLGQLFCDDSAQRIVDMLVAECDKGGVTMRLRSEVLSVERDESGFVLALNGETVTTQKLVIASGGLSMPGLGASPFGYKIAEQFGLKVLPTRAGLVPFTLHKPLLEQLQTLSGVSVPCVITARNGTVFRENLLFTHRGLSGPAVLQISSYWQPGELVSINLLPDLSLEDVLNEQRNAHPNQSLKNTLAMHLPKRLVECLQQLGLIPDVSLRQLNVRDQQTLVDTLTAWQVQPNGTEGYRTAEVTLGGVDTNELSSRTMEARRVPGLYFIGEVMDVTGWLGGYNFQWAWSSAWACAQDLIALKIN
MSLENRGILFDKDGTCIRFDTLWQAGLQACFETLSMLAPHHSAEIKKILAIQEQRFLQKHLLDEVLYQELYQELAQFEELVEQGISSRWLEQFFYDYLRKNLKKIEPIGDLKQLFLELKRKNYKIGLATSDTLPATMLIMEYLGLTEMFDFIATGDRYLPKPDADMLQAFCQSCQLKATEVIMVGDSLVDVFMGTCHGKAGIGVLTGNCQSTDFEKFEVAYFRDIHEIPYQELWGNTKKKKIYYVEGHHHHHH
MSLAQKRYKHILWDLDGTIIDSKIGVSESIRYCLKYFNIEVTCLDEFKPMIGPPLQDSLREIYNFSPQQVEIACKLYDEYYMKKGIHEYKVFQNIEKVLSQLQNDNKELYVATTKPEYAAKQLLADCKLDTYFKFIGGDNEEFTRSNKADVIQYVLSANNISATDNVVMIGDRKYDMLAAKKIGIDTIGVLYGYGDRNELLTNGAQYIIEEPYELLNLLKGEGHHHHHH
MSLGDQYTYYMNEKEFSDFKEKSQGNYMGIGIQVAVKDGKIVVISPIQGGPAEKAGIKTGDIILKVNGEPVSGNELDKAVSMMKGTTKENIKLTLYREGHHHHPPLIRIRAPSTSLRPHSSTTTTTTEIRLLTKPERKLSWLLPPLSNN
MKNTSRDTVVMSWWDFGHLFAVAADRPVTFDGGSQNTPRAYWIGKALTTSNETLSRGILTMLSTSGDLAYETLDNYTDDSGKTAEILTATLGLPREEARAVMTGRYGLSDKEADSVLRYSHPAKPKPFVLVLSSDMLGKAPWWTYFGTWDFKKKTGSRYGYYPSLEHHHHHH
LEANEGSKTLQRNRKMAMGRKKFNMDPKKGIQFLVENELLQNTPEEIARFLYKGEGLNKTAIGDYLGEREELNLAVLHAFVDLHEFTDLNLVQALRQFLWSFRLPGEAQKIDRMMEAFAQRYCLCNPGVFQSTDTCYVLSYSVIMLNTDLHNPNVRDKMGLERFVAMNRGINEGGDLPEELLRNLYDSIRNEPFKIPEDDGND
